This is an account of results in publication PMC5096451.

The target of this experiment is RhoA (UniProt P61586).
Sequence of RhoA (P61586 whole entry): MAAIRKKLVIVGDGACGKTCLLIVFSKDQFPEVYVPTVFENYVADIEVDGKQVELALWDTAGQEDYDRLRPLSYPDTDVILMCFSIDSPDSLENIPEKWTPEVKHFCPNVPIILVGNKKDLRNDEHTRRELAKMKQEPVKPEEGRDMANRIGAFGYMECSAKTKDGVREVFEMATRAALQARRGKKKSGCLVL

Sequence of SseJ (Q9FD10 whole entry): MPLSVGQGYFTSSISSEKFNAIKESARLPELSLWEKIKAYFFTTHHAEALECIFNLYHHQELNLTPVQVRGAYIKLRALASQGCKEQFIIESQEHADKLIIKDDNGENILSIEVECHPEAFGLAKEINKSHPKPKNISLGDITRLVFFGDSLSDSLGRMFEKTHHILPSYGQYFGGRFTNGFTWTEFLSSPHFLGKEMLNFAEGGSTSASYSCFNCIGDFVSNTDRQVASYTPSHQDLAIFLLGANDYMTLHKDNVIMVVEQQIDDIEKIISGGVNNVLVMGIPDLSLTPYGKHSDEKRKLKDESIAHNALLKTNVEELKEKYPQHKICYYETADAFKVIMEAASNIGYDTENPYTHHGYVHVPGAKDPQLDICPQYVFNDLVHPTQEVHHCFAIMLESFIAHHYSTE

As to “SseJ (from UniProt Q9FD10 1-408) (enzyme)”, the SseJ lipase stimulation (PNPP), 200 nM SseJ and 200 nM RhoA-GDP was 0.21 mAU/min; the SseJ lipase stimulation (PNPP), 200 nM SseJ and 200 nM RhoA-GTPγS was determined as 1.2 mAU/min.
